Experiments:
Experiment in all cases: SPR
Settings in all cases: both partners purified
SARS-CoV-1 Urbani RBD = biological target: T1, SARS-CoV-1 Urbani RBD (SARS-CoV-1 Urbani)
T1 construct: source: Expi293F, purified (cobalt IMAC, SEC)

WIV1 RBD = biological target: T2, WIV1 RBD (Bat SARS-like coronavirus WIV1)
T2 construct: source: Expi293F, purified (cobalt IMAC, SEC)

[1] = biological target: T3, SARS-CoV-2 Wuhan-Hu-1 RBD (SARS-CoV-2, UniProt P0DTC2)
T3 construct: source: Expi293F, purified (cobalt IMAC, SEC)

SARS-CoV-1 (Urbani) RBD = biological target: T4, SARS-CoV-1 (Urbani) RBD (SARS-CoV-1 Urbani)
T4 construct: source: Expi293F, purified (cobalt IMAC, SEC)

| Binder | binding result (SARS-CoV-1 Urbani RBD) | Kd (WIV1 RBD) [nM] | koff (WIV1 RBD) [s⁻¹] | kon (WIV1 RBD) [M⁻¹ s⁻¹] | Kd [1] [nM] | koff [1] [s⁻¹] | kon [1] [M⁻¹ s⁻¹] | Kd (SARS-CoV-1 (Urbani) RBD) [nM] | koff (SARS-CoV-1 (Urbani) RBD) [s⁻¹] | kon (SARS-CoV-1 (Urbani) RBD) [M⁻¹ s⁻¹] |
| --- | --- | --- | --- | --- | --- | --- | --- | --- | --- | --- |
| VIR-7229 Fab (obtained by fragmentation of the IgG) (Fab, V domains shown) VH: EVQLVESGGSVVQPGRALRLSCAASGITFSSFGMYWVRQAPGKGLEWLGYIAYDGSDTYYADSVKGRFTISRDNSKNTLYLQMNSLRIEDTAVYYCAKDYYPLLSYYYGLDVWGQGTTVTVSS VL: QSVLTQPRSVSGSPGQSVTISCTGTSSDVGAYNYVSWYQQHPGKAPKFMIYDVDQRPSGVPDRFSGSKSGNTASLIISGLQAEDEADYYCSSYAGSYIWVFGGGTQLTVL | binds | – | – | – | – | – | – | – | – | – |
| VIR-7229 Fab fragment (Fab, V domains shown, source: ExpiCHO (IgG1); Fab by fragmentation of the IgG with the FabLACTICA Fab kit) VH: EVQLVESGGSVVQPGRALRLSCAASGITFSSFGMYWVRQAPGKGLEWLGYIAYDGSDTYYADSVKGRFTISRDNSKNTLYLQMNSLRIEDTAVYYCAKDYYPLLSYYYGLDVWGQGTTVTVSS VL: QSVLTQPRSVSGSPGQSVTISCTGTSSDVGAYNYVSWYQQHPGKAPKFMIYDVDQRPSGVPDRFSGSKSGNTASLIISGLQAEDEADYYCSSYAGSYIWVFGGGTQLTVL | – | 7.85 | 0.00304 | 387000 | 0.185 | 3.67e-05 | 199000 | 2.46 | 0.000912 | 375000 |

From publication PMC11645210 (Cell, 2024)
